# Measurements: the supplement of paper PMC12042874
# ± gives the uncertainty stated by the source.
# Experiment: amyloid nucleation score (Sup35N fusion, yeast selection) (log enrichment); library NNK1; higher = more nucleation; inactive = no reads after selection
# Outline: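 For the nucleation score, DiMSum gave the log enrichment of output over input reads, centred on the mode score of non-aggregating sequences. Psi-negative yeast expressing Sup35N fused to peptides of 20 random codons were induced with 100 μM copper sulfate for 24 hours and grown 7 days at 30°C on medium lacking adenine and uracil. Input and output plasmid inserts were Illumina-sequenced, and sequences with under 100 input reads were excluded.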
row,Substance,amyloid nucleation score
1,YNVKSVCGRAPIGVMGRKWG,0.618 ± 0.52
2,YNVLCYFLNRFWMGYWYLLS,1.5 ± 0.5
3,YNWVGIDRMGFYTFSVGLVC,-0.375 ± 0.38
4,YPLPV,0.376 ± 0.28
5,YPPRAQDMTRSAQRKCQRGV,inactive
6,YPVRFHTYVVISTFGEIGFG,0.822 ± 0.43
7,YQRSTWSSWNQVRYYHEFQR,1.59 ± 0.3
8,YQSHLAIFFRDGHRSSKITN,-0.008 ± 1.2
9,YQWIFIHLPAVLSVGMEIRY,-0.672 ± 0.49
10,YRCCFLKNNPAWVQFSLRLR,-0.436 ± 0.36
11,YRFFCCVGHITSFVFLVGNV,5.25 ± 0.054
12,YRICVKSSVQAGRLMFKVTG,-1.61 ± 2.7
13,YRLRQPLPSERSLMEHSCGV,0.761 ± 0.56
14,YRMGLGS,-0.455 ± 0.96
15,YRPMYMVAEQWYYK,0.896 ± 0.49
16,YRRWKPIGVMSSSWLICVES,0.603 ± 0.43
17,YRSFCFRWWISSGCAGLRGS,0.489 ± 0.67
18,YRSSVL,-0.514 ± 0.29
19,YRTSWEAVQGWSFS,-1.64 ± 1.3
20,YRYSVQVLNCAKGAENGVII,-0.152 ± 0.32
21,YSAIRTKFFAA,0.616 ± 1.1
22,YSAYNRQEDLGLKIVFVLLT,2.57 ± 0.1
23,YSCGGSDSWGTTNSNLGFRH,-0.751 ± 0.66
24,YSDLSVHHYFWHQFRQKCDR,2.01 ± 0.21
25,YSDPYAKWNDQR,0.784 ± 0.76

row,Substance,amyloid nucleation score
1,YSECQLSRARD,inactive
2,YSFALSVG,0.874 ± 0.43
3,YSFGVSTWLI,-0.396 ± 0.74
4,YSFRGEHSTLCLDNVVKSFQ,inactive
5,YSGPGAQFIAMLNKLWCTAH,1.23 ± 0.24
6,YSIDLIPYRDYGNKTCHGIM,2.27 ± 0.081
7,YSISFSYHGVVCGSGSNRGV,-0.589 ± 0.63
8,YSLAMRLVPGPPQDENHTVN,-1.94 ± 1.8
9,YSLGVPSPRKILNVFGGTW,-0.101 ± 0.47
10,YSLMLFESVSSGFKCSLRFA,-0.65 ± 0.42
11,YSLNTSTAWESAAAVTW,0.196 ± 0.4
12,YSLSRCSSEDMSYVYWCSRS,0.119 ± 0.32
13,YSLVICNQNSFPNMVDIVLG,2.53 ± 0.074
14,YSNWTVSTSFSNHERHVFLA,0.839 ± 0.39
15,YSRGGFGHWFQHSL,-0.482 ± 1.7
16,YSRLRVCTNSAMLELGFS,1.03 ± 0.26
17,YSTYQ,0.369 ± 0.29
18,YSVDQYSNTMRLTLHMLVFV,0.455 ± 0.79
19,YSVPVCGDMLTGWYCNKYKY,inactive
20,YSWILKKWVFVYSLFTSGHM,0.278 ± 0.55
21,YSYLV,-0.716 ± 0.84
22,YTCLHGGSGVPPYLFQEHYS,0.193 ± 0.39
23,YTINPRKIRGTPPPIPCRVQ,0.16 ± 0.73
24,YTVLEGGALCFLKELRHRIL,-0.146 ± 0.32
25,YVCIGFYSSPVLGIDFLGNK,3.53 ± 0.11

row,Substance,amyloid nucleation score
1,YVCPRSWVVRVRHQKTFQSY,-0.374 ± 0.81
2,YVFSCTGLNR,-1.03 ± 1
3,YVFSLVSESLQIIYHPLLLL,-0.189 ± 0.41
4,YVIKKWTTCVLDFWHHFSFR,0.583 ± 0.48
5,YVILFVIVVGSA,0.654 ± 0.84
6,YVLRPFGLLKWSNSVGPHER,-0.106 ± 1.2
7,YVMDMIYFYDGLVWSCLCWI,inactive
8,YVNFLGLLDCEL,-0.028 ± 0.48
9,YVRRSCSSRESYSCNCLYVY,0.532 ± 0.92
10,YVSCFRG,0.925 ± 0.3
11,YVSVVCLFVPDKFRNVTDL,6.87 ± 0.073
12,YVSYRIVLGRMPGMKHSRKR,3.6 ± 0.088
13,YVVLASVMLITYVRA,0.786 ± 0.38
14,YVVNGYSICGFDAEVIVLQL,1.19 ± 0.18
15,YWCAISSVSLKFLVMSYLSG,-0.362 ± 1.1
16,YWDKMTLTKNFKWLDLLGVG,inactive
17,YWKSIRPILIEC,inactive
18,YWNMTCNTV,-0.139 ± 0.52
19,YWSLVVAAWRMENGWHGFLL,0.059 ± 0.39
20,YYFIFII,4.79 ± 0.074
21,YYLSLMYSTLYRTKIFWARE,-0.077 ± 0.79
22,YYNVCHNRINLVTSWFFYRR,0.946 ± 0.78
23,YYTCGMYPIYRCCLRTMYSA,-0.494 ± 0.22
24,YYWVT,-1.16 ± 2.4
